# Laboratory results from the nanobody polyreactivity screen of Harvey et al. (2022).
# Test: yeast display, Sf9 membrane polyspecificity reagent, FACS + sequencing; frameworks hold sequencing errors
# Outline: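 Synthetic nanobody libraries on Saccharomyces cerevisiae BJ5465 were galactose-induced for 36–48 hours, stained 1 hour at 4 °C with 10% biotinylated, detergent-solubilized Sf9 membrane reagent and enriched on streptavidin microbeads. FACS then separated cells into low and high (top ~1%) gates by anti-HA (expression) and streptavidin (reagent binding) fluorescence. Genes were colony-PCR amplified, MiSeq 2 × 250 sequenced and CDR-length filtered. A clone's polyreactivity label is that of its gate of origin.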
row,Sequence,polyreactivity (PSR sort gate)
1,QVQLVESGGGLVQAGGSLRLSCAASGFTFYNVMGWYRQAPGKERELVATISTSVDSTYYADSVKGRFTISRDNAKNTVYLQMNSLKPEDTAVYYCNADISSNYYDYFGYDYWGQGTQVTVSS,low polyreactivity
2,QVQLVESGGGLVQAGGSLRLSCAGSGSTFVYNAMGWYRQAPGKERELVAAITAAGGRTYYADSVKGRFTISRDTAKNTVYLQMNSLKPEDTAVYYCYTVRPHGMDYWGQGTQVTVSS,high polyreactivity
3,QVQLVESGGGLVQAGGSLRLSCAASGSIFGYYAMGWYRPATGKEREFVAAITSSGGSTYYADSVKGRFTISRDNAKNTVYLQMNSLKPEDTAVYYCNAGAWQLYWYRYEYWGQGTQVTVSS,high polyreactivity
4,QVQLQESGGGLVLAGGSLRLSCSASGNISVYGSMGWYRQAPGKEREFVATIDPGTNTNYADSVKDRFTISRDNAKNTVYLQMNSLKPEDTAVYYGAVEAGSDWPYPYWGQGTQVTVSS,low polyreactivity
5,QVHLVESGGGLVQAGGSLRLSCAASGLILGHYTMGWYRQAPGKERELVAAITSDGGSTYYADSVMGRFTISRDNAKNTVYLQMNSLKPEDTAVFYCAADLPAYTGYESDYWGQGTQVTGSS,low polyreactivity
6,QVQLVESGGGLVQAGGSLRLSCAASGIILSPYTMGWYIQAPGKERELVAGISRSGGTTYYADSVKGRFTISRDNAKNTVYLQMNSLKPEDTAVYYCAAGLIYGYSGYDSWGQGTQVTVSS,low polyreactivity
7,QVQLVESGGGLVQAGGSLRLSCAASGSTLRYYGMGWYRQAPGKEREFVATLSWGGGSTYYADSVKGRFTISRDNAKNTVYLQINSLKPEDTAVYYCAASWNGGLFQTKYGYWGQGTQVTVSS,high polyreactivity
8,QVQLVESGGGLVQAGGSLRLSCAASGRILGQYAMGWYRQAPGKERELVAAISFRGGRTYYADSVKGRFTISRDNAKNTVYLQMNSLKPEDTAVYYCATDGWRSPYYRNYRYFYTEYYYWGQGTQVTVSS,high polyreactivity
9,QVQLVESGGGLVQAGGSLRLSCAASGNIFSDNAMGWYRQAPGKERELVAAITSGGSTIYADSVKGRFTISRDNAKNTVYLQMNSLKPEDTAVYYCAADISYRHFLFDFWGQGTQVTVSS,low polyreactivity
10,QVQLVESGGGLVQAGGSLRLSCAASGNIFRYYTMGWYRQAPGKERELVATISYADSVKGRFTISRDNAKNTVYLQMNSLKPEDTAVYYCKADFAPWDKQDYPYDYDYWGQGTQVTVSS,low polyreactivity
11,QVQLVESGGGLVQAGGSLRLSCAASGSISDIYTMGWYRQAPGKERELVAAITGSAGSTYADSVKGRFTLSRDNAKNTVYLQMNSLKPEDTAVYYCNAQPGDDVKVKLDYWGQGTQVTVSS,low polyreactivity
12,QVQLVESGGGLVQAGGSLRLSCAASGSTFYYYAMGWYRQAPGKERELVASISASGGNTYYADSVKGRFTISRDNAKNTVYLQMNSLKPEDTAVYYCAARARRSQSISLKYYYWGQGTQVTVSS,high polyreactivity
13,QVQLVESGGGLVQAGGSLRLSCAASGRIFPYYVMGWYRQAPGKERELVAAISRSGSSTYYADSVKGRFTISRDNAKNTVSLQMNSLKPEDTAVYSCAADYNWSPYYTRGDYWGQGTQVTVSS,high polyreactivity
14,QVQLVESGGGLVQAGGSLRLSCAASGFTFSSYAMGWYRQAPGKERELVAAITGGGSRTYYADSVKGRFTISRDNAKNTVYLQMYSLKPEDTAVYYCAKGLSTGRAYRGYDYWGQGTQVTVSS,high polyreactivity
15,QVQLVESGGGLVQAGVSLRLSCAASGSIFVYNAMGWYRQAPGKERELVAAISSSGTRTYYADSVKARFTISRDNAKNTVYLQMNSLKPEDTAVYYCAAYYVPWGTLYHLDYWGQGTQVTVSS,high polyreactivity
16,QVQLVESGGGLVQAGGSLRLSCAASGSIFGRNAMGWYRQAPGKERELVAAINYSGTSTYYADSVKGRFTISRDNAKNTVYLQMNSLKPEDTAVYYCAKARHKSPTYTHDSWGQGTQVTVSS,high polyreactivity
17,QVQLQESGGLVQAGGLRLSCAASGSVSYQEAMGWYRQAPGKERELVATISFGANTNYADSVKGRFTISRDNAKNTVYLQMNSLKPEDTAVYYCAADAYRWWVRYDYWGQGTQVTVSS,low polyreactivity
18,QVQLVESGGGLVQAGGSLRLSCAASGRIFYTYVMGWYRQAPGKERELVAAITRRGGSTNYADSVKGRFTISRDNAKNTVYLQMNSLKPEDTAVYYCAAGTYKGSSVYGMDYWGQGTQVTVSS,high polyreactivity
19,QVQLVESGGGLVQAGGSLRLSCAASGSTLWYNAMGWYRQAPGKERELVASITSDGGSSTYADSVKGRFTISRDNAKNTVYLQMNSQKPEDTAVYYCAADWPIVQYDYWGQGTQVTVSS,low polyreactivity
20,HVQLVESGGGLVQAGGSLRLSCAASGSTFSYYAMGWYRQAPGKERELVAAITSGGRTKYADSVKGRFTISRDNAKNTVYLQMNSLKPEDTAVYYCAKRIEKFSGSLAGRWYDYWGQGTQVTVSS,high polyreactivity
21,QVQLVEAGGGLVQAGGSLRLSCAASGSTFYKNAMGWYRPAAGKERELVAGISRRGGPTYYADSVKGRFTISRDKAMNTVYLQMNSLNPEDTAVYYCNTGHEEDEYDYWGQGTQVTVSS,low polyreactivity
22,QDQLVESWGGLVQAVGSLRLSCAASGSTFEDYGMGWNRQAPGKERQFVAAIRYSGSSKYADSVKGRFTISRDNAKNTVFLLMKSLIPEDTAVYYCAKYGVRVGFGYSSEYFGQGTQVTVSS,low polyreactivity

row,Sequence,polyreactivity (PSR sort gate)
1,QDQLVESGGGLVQAGGSLRLSCAASGFIFSPYAMGWYRQAPGKERELVAAINGGGRTYYADSVKGRFTISRDNAKNTVYLQMNILKPEDTAVYYCAVDPISQGHMDYWGQGTLVTVSS,low polyreactivity
2,QVQLVESGGGLVQAGGSLRLSCAASGIIFYYNAMGWYRQAPGKERELVAAINDSGNTYYADSVKGRFTISRDNAKNTVYFQMNSLKPEDTAVYYCAADVWKYWGYDYWGQGTQVTVSS,low polyreactivity
3,QVQLVESGGGLVQAGGSLRLSCAASGRIFGYYAMGWYRQAPGKERELVAAISYTGGSTYYADSVKGRFTISRDNAKNTVYLQMNSLKPEDTAVYYCAAKHYKRLDYWGQGTQVTVSS,high polyreactivity
4,QVQLVESGGGLVQAGGSLRLSCAASGRIFYGNTMGWSRQAPGKERELVAAISLRGGSTYYADSVKGRFTISRDTAKNTVSLQMNSLKPEDTAVYYCAATGGRGPRRYYWGQGTQVTVSS,high polyreactivity
5,QVQLVESGGGLVQAGGSLRLSCAASGGLFKVYGMRLYRQAPGQERELVAAISWTTGGTYYADSVKGRFTISRDNAKNTVYLQMNSLKPEDTAVYYCNAPTWYYSGVRYDYWGQGTQVTVSS,high polyreactivity
6,QVQLQESGGGLVQAGGSLRLICAASGTIFSARFMGWYRQAPGKERELVATITDGGNTNHADSVKGRFTISRDNAKNTVYLKMYSLKPEDAAVYYCAAGEVDNDTLLFWGQGSQVTVSS,low polyreactivity
7,QVQLVESGGGIVQAGGSLRLSCAASGGIFYRNAMGWYRQAPGKERELVAAISWRGGSTYYADSVKGRFTNSRDNAKNTVYLQMNSLKPEDTAVYFCAARSVATYRYDYWGQGTQVTVSS,high polyreactivity
8,QVQLVESGGGLVQAGGSLRLSCAASGSIFVNNAMGWYRQAPGKERELVAAISSRSSRTFYADSVKGRFTISRDNAKNTVYLQMNSLKPDDNAVFYCAVNNRAPDGEYWGLGTQVTVSS,high polyreactivity
9,QVQLVESGGGLVQAGGSLRLSCPASGSIFGSYAMGWYRQAPGKERELVASITRVDSTNYADSVKGRFTISRDNAKNTVYLQMNRLKPEDTAVYYCNAGKTIDYRDGVGYDHWGQGTQVTVSS,low polyreactivity
10,QVQLVESGGGLVQAGGSLRLSCAASGYTFRSNTMGWYRQAPGKERELVAAISGRGSSTYYADSVKGRFTISRDNAKNTVYLQMNSLKPEDTAVYYCAAQSKYYQYYSWGQGNQVTVSS,high polyreactivity
11,QVQIVESGGGLVQAGGSLRLSCAASGRIFDLNAMGWYRQAPGKEREFVASITWSVGSTYYADSVKGRFTISRDNAKNTVYLQMNSLKPEVTAVYYCAARSLSWTPYYYWGQGTQVTVSS,high polyreactivity
12,QVQLVESGGGLVQAGGSLRLSCAASGGTFEFYTMGLYRQAPGKERELVAVINASGDSTYYADSVKGRFTISRDNAKNTVYLQMNSLKPEDTAVYYCAADHRGEYDYWGQGTQVTVSS,low polyreactivity
13,QVQLVESGGGLVQAGGSLRLNCAASGSIFLIYAMGWYRQATGKERELVAGINWSGSRTYNADSVKGRFTISRDNAKNTVYLQMNSLKPEDTAVYYCAARVRRPLYSAYDSWGQGTQVTVSS,low polyreactivity
14,QVQLEESGGGLVQAGGSLSLSCAASGNFFVLYAMGCYRQAPGKERELVASITSDGITYYADSVKGRFTMSRDNAKNTVYLQMNSLKPEDTAVYYCAVDRSYRYLPRGDYWGQGTQVTVSS,low polyreactivity
15,QVQLVESGGGLVQAGGSLRLSCAASGRTFRSNAMGWYRQAPGKERELVAAIRNSDGSTNYADSVKGRFTISRDNAKNNVYLQMNSLKPEDTAVYYCAASSTVGGITRILYYYWGQGTQVTVSS,high polyreactivity
16,QVQLVESGGGLVQAGGSLRLICAASGFTFNWYAMGWYRQAPGKERELVATISSTGSTYYADSVKGRFTISRDNAKNTVYLQMNSQKPEDTGVYYCAVRRPPYSYYWDFDSWGQGTPVTVSS,high polyreactivity
17,QVQLVETGGGLVQAGGSLRLSCAASGRTFSRNAMGWYRQAPGKERELVAAISQRGVSTYYADSVKGRFTISRDNAKNTVYLQMNSLKPEDTAVYYCNTRGTYRYDYWGQGTQVTVSS,low polyreactivity
18,QVQLVESGGGLVQAGGSLRLSCAASGRTFTSYAMGWYRQAPGKERELVAGISSGGSTNYADSVKGRFTISRDNEKNTVYLQMNSLKPEDTEVYYCAAGFSPGTYDAPTLAFDYWGQGTQVTVSS,low polyreactivity
19,QVQLVESGGGIVQAGGSLRLSCAASGSTFVVYAMVWYRQEPGKERELVAAITSGGSTYYADSVKGRFTISRDNAKNTVFLQMNSLKPDDSAVYYCNKDDFSNELYWGQGTDVTVSS,low polyreactivity
20,QVQLVESGGGLVQAGGSLRLSCAASGRIFGSYVMGWYRQAPGKERELVAAISRGGSTYYADSVKGRFTISRDNAKNTVYLQLNSLTPEDTAVYYCAAYSIYGTSYLYTQAFYYWGQGTQVTVSS,high polyreactivity
21,QVQLVESGGGLVQAGGSLRLSCAASGSTFLVYAMGWYRQAPGKERELVAAIRSGGRTYYADSVKGRFTISRDNAKNTVYLQMNSLKPEDTAVYYCAADVLLRYGYRGYDYWGQGTQVTVSS,low polyreactivity
